Source: paper doi:10.1101/2021.03.16.435520 (bioRxiv, 2021)

Molecular target: the molecule itself
Experiment: cross-linking

B1: IRE1-KR-R887A, unphosphorylated (domain or fragment)
chain: GSSPSLEQDDGDEETSVVIVGKISFCPKDVLGHGAEGTIVYRGMFDNRDVAVKRILPECFSFADREVQLLRESDEHPNVIRYFCTEKDRQFQYIAIELCAATLQEYVEQKDFAHLGLEPITLLQQTTSGLAHLHSLNIVHRDLKPHNILISMPNAHGKIKAMISDFGLCKKLAVGRHSFSRRSGVPGTEGWIAPEMLSEDCKENPTYTVDIFSAGCVFYYVISEGSHPFGKSLQRQANILLGACSLDCLHPEKHEDVIARELIEKMIAMDPQKRPSAKHVLKHPFFWSLEKQLQFFQDVSDRIEKESLDGPIVKQLERGGRAVVKMDWRENITVPLQTDLAKFRTYKGGSVRDLLRAMRNKKHHYRELPAEVRETLGSLPDDFVCYFTSRFPHLLAHTYRAMELCSHERLFQPYYFHEPPEPQPPVTPDAL
- stoichiometry N: 2
